The values that follow come from PMC7226629.

In test [1] the target is CCR5 (human (endogenous in SNU387, PLC/PRF-5, SK-HEP-1)) (UniProt P51681).
Test [2] has the same target. The source holds these as a separate data set.

UniProt P51681, sequence (P51681 whole entry): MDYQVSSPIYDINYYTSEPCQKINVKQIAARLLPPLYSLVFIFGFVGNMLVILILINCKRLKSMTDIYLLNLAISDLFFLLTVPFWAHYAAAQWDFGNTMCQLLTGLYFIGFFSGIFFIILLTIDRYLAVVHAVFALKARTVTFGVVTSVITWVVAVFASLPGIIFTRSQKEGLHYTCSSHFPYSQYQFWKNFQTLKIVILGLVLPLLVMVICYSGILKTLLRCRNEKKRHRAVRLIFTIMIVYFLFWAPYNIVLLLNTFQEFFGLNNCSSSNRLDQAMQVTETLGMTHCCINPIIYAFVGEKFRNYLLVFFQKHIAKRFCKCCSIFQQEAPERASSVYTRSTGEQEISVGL

For “CCL5 recombinant protein (from UniProt P13501 24-91) (ligand)”, in test [1], the Akt-1 mRNA (qRT-PCR) in PLC/PRF-5 cells treated with CCL5; diminished by maraviroc came out at 1.3 fold; the Akt-1 mRNA (qRT-PCR) in SK-HEP-1 cells treated with CCL5; diminished by maraviroc was 1.2 fold; the E-cadherin mRNA (qRT-PCR) in PLC/PRF-5 cells after exposure to maraviroc, compared to CCL5-treated cells worked out at 0.3 fold; the E-cadherin mRNA (qRT-PCR) in SK-HEP-1 cells after exposure to maraviroc, compared to CCL5-treated cells is 0.8 fold. Also, in test [1], the beta-catenin mRNA (qRT-PCR) in PLC/PRF-5 cells treated with CCL5; diminished by maraviroc came out at 1.7 fold and the beta-catenin mRNA (qRT-PCR) in SK-HEP-1 cells treated with CCL5; diminished by maraviroc amounted to 1.3 fold. In addition, the caspase-3 mRNA (qRT-PCR) in HCC cells: down-regulated with CCL5, higher with CCL5 plus maraviroc in two of the three cell lines in test [2] worked out at 0.5 fold.
